The results in this text go back to the supplement of paper PMC12338614.

± gives the uncertainty stated by the source.

B1: library; numbered along this chain (parent)
chain: MEVVDPQQLGMFTEGELMSVGMDTFIHRIDSTEVIYQPRRKRAKLIGKYLMGDLLGEGSYGKVKEVLDSETLCRRAVKILKKKKLRRIPNGEANVKKEIQLLRRLRHKNVIQLVDVLYNEEKQKMYMVMEYCVCGMQEMLDSVPEKRFPVCQAHGYFCQLIDGLEYLHSQGIVHKDIKPGNLLLTTGGTLKISDLGVAEALHPFAADDTCRTSQGSPAFQPPEIANGLDTFSGFKVDIWSAGVTLYNITTGLYPFEGDNIYKLFENIGKGSYAIPGDCGPPLSDLLKGMLEYEPAKRFSIRQIRQHSWFRKKHPPAEAPVPIPPSPDTKDRWRSMTVVPYLEDLHGADEDEDLFDIEDDIIYTQDFTVPGQVPEEEASHNGQRRGLPKAVCMNGTEAAQLSTKSRAEGRAPNPARKACSASSKIRRLSACKQQ

In the series the parent is B1. In words: STK11 functional score (HeLa growth suppression), rescaled enrichment; synonymous median = 1, nonsense median = 0 (normalised score). The conditions noted are these: with HeLa; variant type: missense. Here is the method:
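Deep mutational scan (TileSeq/POPCode codon randomisation) of full-length codon-optimised STK11 cDNA integrated at a Bxb1 landing pad (AAVS1) in HeLa cells. Restoring functional STK11 suppresses HeLa proliferation. Variant frequencies were measured by NGS before and after about two weeks of growth. The error-corrected enrichment log-ratio was rescaled so that synonymous median = 1 and nonsense median = 0, scores above 1 were compressed, and codon-level and three biological replicate scores were combined; error is the bootstrapped standard error. Scale: synonymous median = 1, nonsense median = 0; below 0.5 = damaging.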
In the case of MEVVDPQQLGMFTEGELMSVGMDTFIHRIDSTEVIYQPRRKRAKLIGKYLMGDLLGEGSYGKVKEVLDSETLCRRAVKILKKKKLRRIPNGEANVKKEIQLHRRLRHKNVIQLVDVLYNEEKQKMYMVMEYCVCGMQEMLDSVPEKRFPVCQAHGYFCQLIDGLEYLHSQGIVHKDIKPGNLLLTTGGTLKISDLGVAEALHPFAADDTCRTSQGSPAFQPPEIANGLDTFSGFKVDIWSAGVTLYNITTGLYPFEGDNIYKLFENIGKGSYAIPGDCGPPLSDLLKGMLEYEPAKRFSIRQIRQHSWFRKKHPPAEAPVPIPPSPDTKDRWRSMTVVPYLEDLHGADEDEDLFDIEDDIIYTQDFTVPGQVPEEEASHNGQRRGLPKAVCMNGTEAAQLSTKSRAEGRAPNPARKACSASSKIRRLSACKQQ [L102H], the STK11 functional score is 1.61 ± 0.3.
Regarding MEVVDPQQLGMFTEGELMSVGMDTFIHRIDSTEVIYQPRRKRAKLIGKYLMGDLLGEGSYGKVKEVLDSETLCRRAVKILKKKKLRRIPNGEANVKKEIQLVRRLRHKNVIQLVDVLYNEEKQKMYMVMEYCVCGMQEMLDSVPEKRFPVCQAHGYFCQLIDGLEYLHSQGIVHKDIKPGNLLLTTGGTLKISDLGVAEALHPFAADDTCRTSQGSPAFQPPEIANGLDTFSGFKVDIWSAGVTLYNITTGLYPFEGDNIYKLFENIGKGSYAIPGDCGPPLSDLLKGMLEYEPAKRFSIRQIRQHSWFRKKHPPAEAPVPIPPSPDTKDRWRSMTVVPYLEDLHGADEDEDLFDIEDDIIYTQDFTVPGQVPEEEASHNGQRRGLPKAVCMNGTEAAQLSTKSRAEGRAPNPARKACSASSKIRRLSACKQQ [L102V], the STK11 functional score was 0.912 ± 0.083.
Regarding MEVVDPQQLGMFTEGELMSVGMDTFIHRIDSTEVIYQPRRKRAKLIGKYLMGDLLGEGSYGKVKEVLDSETLCRRAVKILKKKKLRRIPNGEANVKKEIQLGRRLRHKNVIQLVDVLYNEEKQKMYMVMEYCVCGMQEMLDSVPEKRFPVCQAHGYFCQLIDGLEYLHSQGIVHKDIKPGNLLLTTGGTLKISDLGVAEALHPFAADDTCRTSQGSPAFQPPEIANGLDTFSGFKVDIWSAGVTLYNITTGLYPFEGDNIYKLFENIGKGSYAIPGDCGPPLSDLLKGMLEYEPAKRFSIRQIRQHSWFRKKHPPAEAPVPIPPSPDTKDRWRSMTVVPYLEDLHGADEDEDLFDIEDDIIYTQDFTVPGQVPEEEASHNGQRRGLPKAVCMNGTEAAQLSTKSRAEGRAPNPARKACSASSKIRRLSACKQQ [L102G], the STK11 functional score stood at 1.07 ± 0.08.
On to MEVVDPQQLGMFTEGELMSVGMDTFIHRIDSTEVIYQPRRKRAKLIGKYLMGDLLGEGSYGKVKEVLDSETLCRRAVKILKKKKLRRIPNGEANVKKEIQLERRLRHKNVIQLVDVLYNEEKQKMYMVMEYCVCGMQEMLDSVPEKRFPVCQAHGYFCQLIDGLEYLHSQGIVHKDIKPGNLLLTTGGTLKISDLGVAEALHPFAADDTCRTSQGSPAFQPPEIANGLDTFSGFKVDIWSAGVTLYNITTGLYPFEGDNIYKLFENIGKGSYAIPGDCGPPLSDLLKGMLEYEPAKRFSIRQIRQHSWFRKKHPPAEAPVPIPPSPDTKDRWRSMTVVPYLEDLHGADEDEDLFDIEDDIIYTQDFTVPGQVPEEEASHNGQRRGLPKAVCMNGTEAAQLSTKSRAEGRAPNPARKACSASSKIRRLSACKQQ [L102E], for which the STK11 functional score worked out at 1.51 ± 0.11.
The value for MEVVDPQQLGMFTEGELMSVGMDTFIHRIDSTEVIYQPRRKRAKLIGKYLMGDLLGEGSYGKVKEVLDSETLCRRAVKILKKKKLRRIPNGEANVKKEIQLRRRLRHKNVIQLVDVLYNEEKQKMYMVMEYCVCGMQEMLDSVPEKRFPVCQAHGYFCQLIDGLEYLHSQGIVHKDIKPGNLLLTTGGTLKISDLGVAEALHPFAADDTCRTSQGSPAFQPPEIANGLDTFSGFKVDIWSAGVTLYNITTGLYPFEGDNIYKLFENIGKGSYAIPGDCGPPLSDLLKGMLEYEPAKRFSIRQIRQHSWFRKKHPPAEAPVPIPPSPDTKDRWRSMTVVPYLEDLHGADEDEDLFDIEDDIIYTQDFTVPGQVPEEEASHNGQRRGLPKAVCMNGTEAAQLSTKSRAEGRAPNPARKACSASSKIRRLSACKQQ [L102R] was 0.466 ± 0.086; that for MEVVDPQQLGMFTEGELMSVGMDTFIHRIDSTEVIYQPRRKRAKLIGKYLMGDLLGEGSYGKVKEVLDSETLCRRAVKILKKKKLRRIPNGEANVKKEIQLIRRLRHKNVIQLVDVLYNEEKQKMYMVMEYCVCGMQEMLDSVPEKRFPVCQAHGYFCQLIDGLEYLHSQGIVHKDIKPGNLLLTTGGTLKISDLGVAEALHPFAADDTCRTSQGSPAFQPPEIANGLDTFSGFKVDIWSAGVTLYNITTGLYPFEGDNIYKLFENIGKGSYAIPGDCGPPLSDLLKGMLEYEPAKRFSIRQIRQHSWFRKKHPPAEAPVPIPPSPDTKDRWRSMTVVPYLEDLHGADEDEDLFDIEDDIIYTQDFTVPGQVPEEEASHNGQRRGLPKAVCMNGTEAAQLSTKSRAEGRAPNPARKACSASSKIRRLSACKQQ [L102I] was 1.26 ± 0.2.
MEVVDPQQLGMFTEGELMSVGMDTFIHRIDSTEVIYQPRRKRAKLIGKYLMGDLLGEGSYGKVKEVLDSETLCRRAVKILKKKKLRRIPNGEANVKKEIQLDRRLRHKNVIQLVDVLYNEEKQKMYMVMEYCVCGMQEMLDSVPEKRFPVCQAHGYFCQLIDGLEYLHSQGIVHKDIKPGNLLLTTGGTLKISDLGVAEALHPFAADDTCRTSQGSPAFQPPEIANGLDTFSGFKVDIWSAGVTLYNITTGLYPFEGDNIYKLFENIGKGSYAIPGDCGPPLSDLLKGMLEYEPAKRFSIRQIRQHSWFRKKHPPAEAPVPIPPSPDTKDRWRSMTVVPYLEDLHGADEDEDLFDIEDDIIYTQDFTVPGQVPEEEASHNGQRRGLPKAVCMNGTEAAQLSTKSRAEGRAPNPARKACSASSKIRRLSACKQQ [L102D]: the STK11 functional score came out at 0.469 ± 0.2.
Take MEVVDPQQLGMFTEGELMSVGMDTFIHRIDSTEVIYQPRRKRAKLIGKYLMGDLLGEGSYGKVKEVLDSETLCRRAVKILKKKKLRRIPNGEANVKKEIQLFRRLRHKNVIQLVDVLYNEEKQKMYMVMEYCVCGMQEMLDSVPEKRFPVCQAHGYFCQLIDGLEYLHSQGIVHKDIKPGNLLLTTGGTLKISDLGVAEALHPFAADDTCRTSQGSPAFQPPEIANGLDTFSGFKVDIWSAGVTLYNITTGLYPFEGDNIYKLFENIGKGSYAIPGDCGPPLSDLLKGMLEYEPAKRFSIRQIRQHSWFRKKHPPAEAPVPIPPSPDTKDRWRSMTVVPYLEDLHGADEDEDLFDIEDDIIYTQDFTVPGQVPEEEASHNGQRRGLPKAVCMNGTEAAQLSTKSRAEGRAPNPARKACSASSKIRRLSACKQQ [L102F]: the STK11 functional score worked out at 1.11 ± 0.17.
The value for MEVVDPQQLGMFTEGELMSVGMDTFIHRIDSTEVIYQPRRKRAKLIGKYLMGDLLGEGSYGKVKEVLDSETLCRRAVKILKKKKLRRIPNGEANVKKEIQLQRRLRHKNVIQLVDVLYNEEKQKMYMVMEYCVCGMQEMLDSVPEKRFPVCQAHGYFCQLIDGLEYLHSQGIVHKDIKPGNLLLTTGGTLKISDLGVAEALHPFAADDTCRTSQGSPAFQPPEIANGLDTFSGFKVDIWSAGVTLYNITTGLYPFEGDNIYKLFENIGKGSYAIPGDCGPPLSDLLKGMLEYEPAKRFSIRQIRQHSWFRKKHPPAEAPVPIPPSPDTKDRWRSMTVVPYLEDLHGADEDEDLFDIEDDIIYTQDFTVPGQVPEEEASHNGQRRGLPKAVCMNGTEAAQLSTKSRAEGRAPNPARKACSASSKIRRLSACKQQ [L102Q] was 1.48 ± 0.65.
On to MEVVDPQQLGMFTEGELMSVGMDTFIHRIDSTEVIYQPRRKRAKLIGKYLMGDLLGEGSYGKVKEVLDSETLCRRAVKILKKKKLRRIPNGEANVKKEIQLTRRLRHKNVIQLVDVLYNEEKQKMYMVMEYCVCGMQEMLDSVPEKRFPVCQAHGYFCQLIDGLEYLHSQGIVHKDIKPGNLLLTTGGTLKISDLGVAEALHPFAADDTCRTSQGSPAFQPPEIANGLDTFSGFKVDIWSAGVTLYNITTGLYPFEGDNIYKLFENIGKGSYAIPGDCGPPLSDLLKGMLEYEPAKRFSIRQIRQHSWFRKKHPPAEAPVPIPPSPDTKDRWRSMTVVPYLEDLHGADEDEDLFDIEDDIIYTQDFTVPGQVPEEEASHNGQRRGLPKAVCMNGTEAAQLSTKSRAEGRAPNPARKACSASSKIRRLSACKQQ [L102T], for which the STK11 functional score came out at 0.0689 ± 0.37.
Then MEVVDPQQLGMFTEGELMSVGMDTFIHRIDSTEVIYQPRRKRAKLIGKYLMGDLLGEGSYGKVKEVLDSETLCRRAVKILKKKKLRRIPNGEANVKKEIQLMRRLRHKNVIQLVDVLYNEEKQKMYMVMEYCVCGMQEMLDSVPEKRFPVCQAHGYFCQLIDGLEYLHSQGIVHKDIKPGNLLLTTGGTLKISDLGVAEALHPFAADDTCRTSQGSPAFQPPEIANGLDTFSGFKVDIWSAGVTLYNITTGLYPFEGDNIYKLFENIGKGSYAIPGDCGPPLSDLLKGMLEYEPAKRFSIRQIRQHSWFRKKHPPAEAPVPIPPSPDTKDRWRSMTVVPYLEDLHGADEDEDLFDIEDDIIYTQDFTVPGQVPEEEASHNGQRRGLPKAVCMNGTEAAQLSTKSRAEGRAPNPARKACSASSKIRRLSACKQQ [L102M], with 0.857 ± 0.19.
Take MEVVDPQQLGMFTEGELMSVGMDTFIHRIDSTEVIYQPRRKRAKLIGKYLMGDLLGEGSYGKVKEVLDSETLCRRAVKILKKKKLRRIPNGEANVKKEIQLYRRLRHKNVIQLVDVLYNEEKQKMYMVMEYCVCGMQEMLDSVPEKRFPVCQAHGYFCQLIDGLEYLHSQGIVHKDIKPGNLLLTTGGTLKISDLGVAEALHPFAADDTCRTSQGSPAFQPPEIANGLDTFSGFKVDIWSAGVTLYNITTGLYPFEGDNIYKLFENIGKGSYAIPGDCGPPLSDLLKGMLEYEPAKRFSIRQIRQHSWFRKKHPPAEAPVPIPPSPDTKDRWRSMTVVPYLEDLHGADEDEDLFDIEDDIIYTQDFTVPGQVPEEEASHNGQRRGLPKAVCMNGTEAAQLSTKSRAEGRAPNPARKACSASSKIRRLSACKQQ [L102Y]: the STK11 functional score was found to be 1.2 ± 0.37.
In the case of MEVVDPQQLGMFTEGELMSVGMDTFIHRIDSTEVIYQPRRKRAKLIGKYLMGDLLGEGSYGKVKEVLDSETLCRRAVKILKKKKLRRIPNGEANVKKEIQLWRRLRHKNVIQLVDVLYNEEKQKMYMVMEYCVCGMQEMLDSVPEKRFPVCQAHGYFCQLIDGLEYLHSQGIVHKDIKPGNLLLTTGGTLKISDLGVAEALHPFAADDTCRTSQGSPAFQPPEIANGLDTFSGFKVDIWSAGVTLYNITTGLYPFEGDNIYKLFENIGKGSYAIPGDCGPPLSDLLKGMLEYEPAKRFSIRQIRQHSWFRKKHPPAEAPVPIPPSPDTKDRWRSMTVVPYLEDLHGADEDEDLFDIEDDIIYTQDFTVPGQVPEEEASHNGQRRGLPKAVCMNGTEAAQLSTKSRAEGRAPNPARKACSASSKIRRLSACKQQ [L102W], the STK11 functional score stood at 1.2 ± 0.079.
Turning to MEVVDPQQLGMFTEGELMSVGMDTFIHRIDSTEVIYQPRRKRAKLIGKYLMGDLLGEGSYGKVKEVLDSETLCRRAVKILKKKKLRRIPNGEANVKKEIQLSRRLRHKNVIQLVDVLYNEEKQKMYMVMEYCVCGMQEMLDSVPEKRFPVCQAHGYFCQLIDGLEYLHSQGIVHKDIKPGNLLLTTGGTLKISDLGVAEALHPFAADDTCRTSQGSPAFQPPEIANGLDTFSGFKVDIWSAGVTLYNITTGLYPFEGDNIYKLFENIGKGSYAIPGDCGPPLSDLLKGMLEYEPAKRFSIRQIRQHSWFRKKHPPAEAPVPIPPSPDTKDRWRSMTVVPYLEDLHGADEDEDLFDIEDDIIYTQDFTVPGQVPEEEASHNGQRRGLPKAVCMNGTEAAQLSTKSRAEGRAPNPARKACSASSKIRRLSACKQQ [L102S], the STK11 functional score was 0.447 ± 0.3.
